Biological target: T1, LEDGF/p75 IBD (Homo sapiens, UniProt O75475)
T1 chain: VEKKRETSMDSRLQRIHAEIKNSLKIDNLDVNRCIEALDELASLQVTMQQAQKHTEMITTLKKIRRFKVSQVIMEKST
Test: NMR

Kd: 64 µM
Binder: GTNLRRFRAVFGESGGGGGSGEDEQFLGFGSDEEVRVR [MLL 123-160]
